Consider two substances from patent US7244577.

For this experiment, the target named is low-density lipoprotein (LDL) particles, 125I-labelled. As to the kind of experiment: cell-based or functional assay.

With “LDL-receptor (from UniProt P01130 22-860) (receptor; the values are: fold increase in LDL uptake)”, the uptake of 125I-LDL by FH fibroblasts infected with LDL-receptor adenovirus was 20 fold. Consider “human LDL-receptor related protein-5 (LRP5), isoform 1 (from UniProt O75197 32-1615)”, for which the uptake of 125I-LDL by FH fibroblasts infected with LRP5 adenovirus came to 60 % increase.
